In the RNAGym collection of RNA variant scans (doi:10.7554/elife.80360):

B1: HDV Ribozyme (parent)
chain: GGCCGGCAUGGUCCCAGCCUCCUCGCUGGCGCCGGCUGGGCAACAUUCCGAGGGGACCGUCCCCUCGGUAAUGGCGAAUGGGACCCA

Variants of: B1
Test: self-cleavage, relative activity (ratio to wild type); higher = more cleavage; co-transcriptional

Compared with G2C G25U, G2C A78C is lower in self-cleavage: 0.0702 for the first, 0 for the second.

Compared with G1U C86A, G1A C33G is lower in self-cleavage: 0.32 for the first, 0.148 for the second.

Compared with G1A C33A, G1U A87U is higher in self-cleavage: 0.0554 for the first, 0.507 for the second.

Compared with G2C C49G, G1A G80A is lower in self-cleavage: 0.145 for the first, 0.0455 for the second.

Going from G1C A51U to G2A A83U, the self-cleavage falls from 0.222 to 0.119.

First: G1C G2C
Second: G2A C30A
The self-cleavage of the first is higher: 1.06 for the first, 0.0152 for the second.

First: G2A C30U
Second: G2A C30G
The self-cleavage of the first is higher: 0.0639 for the first, 0.0432 for the second.

Going from G2C G52U to G2C G52C, the self-cleavage falls from 0.032 to 0.

Going from G1A A77C to G1U G29A, the self-cleavage rises from 0.0405 to 0.336.

First: G1C U65C
Second: G2C G76U
The self-cleavage of the first is higher: 0.128 for the first, 0.0455 for the second.

Compared with G2A G10A, G2A G38U is higher in self-cleavage: 0.0256 for the first, 0.0373 for the second.

First: G1U U46G
Second: G1U U20C
The self-cleavage of the first is lower: 0.259 for the first, 0.401 for the second.

First: G1U U79G
Second: G1U G68U
The self-cleavage of the first is higher: 0.539 for the first, 0.287 for the second.

Going from G2A A70U to G1A C58A, the self-cleavage falls from 0.228 to 0.0978.

First: G1C G59C
Second: G1C U23G
The self-cleavage of the first is higher: 0.365 for the first, 0.227 for the second.

Going from G1C U23C to G2A U60C, the self-cleavage rises from 0.0831 to 0.354.

Going from G1A U72A to G1A U72G, the self-cleavage falls from 0.246 to 0.0665.

Compared with G1A U72C, G1U G25A is higher in self-cleavage: 0.107 for the first, 0.354 for the second.

Going from G1U G25C to G2A C36A, the self-cleavage rises from 0.17 to 0.228.

Compared with G2A U72A, G2C G59A is lower in self-cleavage: 0.053 for the first, 0.0193 for the second.

Going from G1U G55C to G2A G59A, the self-cleavage falls from 0.455 to 0.208.

Going from G2A C49U to G2C C18A, the self-cleavage falls from 0.237 to 0.0346.

First: G1A G74A
Second: G2A C7G
The self-cleavage of the first is higher: 0.0287 for the first, 0.017 for the second.

Going from G2A C7U to G2C C13G, the self-cleavage falls from 0.0852 to 0.0504.

First: G1A A51U
Second: G1A U79G
The self-cleavage of the first is lower: 0 for the first, 0.0923 for the second.

Going from G1C C30U to G2C G80A, the self-cleavage falls from 0.0755 to 0.0573.

Compared with G1C G31U, G2C G53U is lower in self-cleavage: 0.0791 for the first, 0.0665 for the second.

First: G1C C24U
Second: G1C G10A
The self-cleavage of the first is lower: 0.0489 for the first, 0.166 for the second.

Going from G1C G10C to G1C G73U, the self-cleavage falls from 0.095 to 0.0426.

Compared with G2A C22G, G2A C26G is higher in self-cleavage: 0.0191 for the first, 0.166 for the second.

Going from G2A C26A to G2U A16G, the self-cleavage falls from 0.216 to 0.0426.

Going from G2U A16U to G1C C48U, the self-cleavage rises from 0.0237 to 0.227.

Compared with G2C A77U, G1A A8U is lower in self-cleavage: 0.119 for the first, 0 for the second.

First: G1C G35A
Second: G1C G35C
The self-cleavage of the first is higher: 0.208 for the first, 0 for the second.

Compared with G1A G29A, G1A G81U is lower in self-cleavage: 0.0615 for the first, 0.0426 for the second.

Going from G1A G81C to G1C C85U, the self-cleavage falls from 0.269 to 0.266.

Going from G1C C85G to G2C U46A, the self-cleavage falls from 0.151 to 0.0911.

Compared with G2C U46G, G2C U60A is lower in self-cleavage: 0.0959 for the first, 0.0779 for the second.

Compared with G2C U60G, G2C C24A is higher in self-cleavage: 0.0326 for the first, 0.0791 for the second.

Going from G1A G50U to G1A G50C, the self-cleavage rises from 0.128 to 0.302.

Compared with G2A C85A, G2A C85G is lower in self-cleavage: 0.268 for the first, 0.217 for the second.

First: G1C C7G
Second: G1C G80C
The self-cleavage of the first is higher: 0.0875 for the first, 0.0475 for the second.

First: G1U C7G
Second: G1U C7A
The self-cleavage of the first is higher: 0.332 for the first, 0.169 for the second.

First: G1A G11C
Second: G1C C41G
The self-cleavage of the first is higher: 0.172 for the first, 0 for the second.

Going from G2C A71U to G2C A71C, the self-cleavage falls from 0.11 to 0.0723.

Going from G1U G11C to G2A C33G, the self-cleavage falls from 0.288 to 0.0378.

Compared with G2C G5A, G1C G6C is lower in self-cleavage: 0.0563 for the first, 0 for the second.

Compared with G1C G76A, G1C G28C is lower in self-cleavage: 0.26 for the first, 0 for the second.

Compared with G1C G17C, G1C G17A is higher in self-cleavage: 0 for the first, 0.332 for the second.

First: G1C G17U
Second: G1C G52C
The self-cleavage of the first is lower: 0.0573 for the first, 0.256 for the second.

Compared with G2A A78C, G2A A78G is higher in self-cleavage: 0.0432 for the first, 0.0504 for the second.

First: G1U G34C
Second: G1C C49A
The self-cleavage of the first is lower: 0.155 for the first, 0.237 for the second.

First: G1C G81A
Second: G1C G81C
The self-cleavage of the first is lower: 0 for the first, 0.119 for the second.

Compared with G1C G81U, G1U U27C is higher in self-cleavage: 0.192 for the first, 0.26 for the second.

Compared with G2C G54C, G1A C66A is higher in self-cleavage: 0.0208 for the first, 0.26 for the second.

Going from G1C G38C to G1C G38U, the self-cleavage rises from 0 to 0.0396.

Going from G1C G74U to G2C U37A, the self-cleavage falls from 0.133 to 0.0583.

Going from G1U C48G to G2A C86G, the self-cleavage falls from 0.243 to 0.0755.

G1A U65G and G1C C75A are the same in self-cleavage: 0 for the first, 0 for the second.

First: G1C A8G
Second: G1U U37A
The self-cleavage of the first is lower: 0.123 for the first, 0.584 for the second.

Compared with G1U U37G, G1U C32U is higher in self-cleavage: 0.31 for the first, 0.532 for the second.

First: G1U C32G
Second: G1A G25C
The self-cleavage of the first is higher: 0.305 for the first, 0 for the second.

G2C G28A and G2C G28C are the same in self-cleavage: 0.0475 for the first, 0.0475 for the second.

Compared with G2U A42G, G1A C24G is lower in self-cleavage: 0.0767 for the first, 0.0702 for the second.

Going from G1U C41U to G1U C41G, the self-cleavage rises from 0.228 to 0.249.

Compared with G2C G73U, G1A G39A is higher in self-cleavage: 0.0683 for the first, 0.141 for the second.

Going from G2C C30U to G1A A16G, the self-cleavage rises from 0.117 to 0.302.

First: G1A C86A
Second: G1A C86U
The self-cleavage of the first is lower: 0.119 for the first, 0.19 for the second.

Compared with G1C C13U, G1C G82A is lower in self-cleavage: 0.125 for the first, 0.0475 for the second.

First: G1A U60G
Second: G2C C21A
The self-cleavage of the first is higher: 0.302 for the first, 0 for the second.

Going from G1C C44G to G1C C44U, the self-cleavage falls from 0.0692 to 0.0615.

Compared with G1C C44A, G1A G28C is lower in self-cleavage: 0.353 for the first, 0.219 for the second.

First: G1A G28U
Second: G2A G11U
The self-cleavage of the first is higher: 0.106 for the first, 0.0328 for the second.

First: G2A G11A
Second: G2C C63G
The self-cleavage of the first is higher: 0.0786 for the first, 0.0314 for the second.

First: G2C C63U
Second: G2A A16U
The self-cleavage of the first is lower: 0 for the first, 0.0665 for the second.

Going from G1U U47A to G1C A87C, the self-cleavage falls from 0.295 to 0.156.

Going from G1C U79G to G2A U37A, the self-cleavage rises from 0.0723 to 0.0755.

Compared with G1C C86U, G2C C61G is lower in self-cleavage: 0.262 for the first, 0.0647 for the second.

Compared with G2C C61U, G2C A43U is lower in self-cleavage: 0.137 for the first, 0.0297 for the second.

Compared with G2C A43G, G2A G53C is higher in self-cleavage: 0 for the first, 0.348 for the second.

Compared with G2A G53A, G1A U23G is lower in self-cleavage: 0.168 for the first, 0 for the second.

First: G1C C3U
Second: G1A C49A
The self-cleavage of the first is higher: 0.34 for the first, 0.0923 for the second.

Compared with G1A C49G, G1C C36U is higher in self-cleavage: 0.166 for the first, 0.394 for the second.

Variant G2A G50A has a self-cleavage of 0.0386.
